Consider 4 molecules from patent publication US20220267417A1 (UNIVERSIT GRENOBLE ALPES, published 2022).

Test [1] addresses T1, OprF protein of Pseudomonas aeruginosa on bacteria of the CHA strain (Pseudomonas aeruginosa, UniProt P13794 25-350).
T1 sequence (looked up): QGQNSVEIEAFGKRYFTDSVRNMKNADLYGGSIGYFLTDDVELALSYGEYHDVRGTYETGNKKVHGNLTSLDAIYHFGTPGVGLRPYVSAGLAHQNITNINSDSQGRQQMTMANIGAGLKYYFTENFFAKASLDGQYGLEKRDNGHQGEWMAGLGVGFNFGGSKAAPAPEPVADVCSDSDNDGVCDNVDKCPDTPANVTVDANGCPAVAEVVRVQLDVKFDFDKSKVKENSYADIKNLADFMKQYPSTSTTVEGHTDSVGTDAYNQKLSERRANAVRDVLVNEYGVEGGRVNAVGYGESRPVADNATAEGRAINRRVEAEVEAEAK
Nature of the test: cell-based or functional assay.

The target in test [2] is T2, OprF protein of Pseudomonas aeruginosa with N-terminal polyhistidine tag, in proteoliposomes (Pseudomonas aeruginosa, UniProt P13794 25-350, limits assumed).
T2 construct: Made by cell-free synthesis (E. coli lysate) in the presence of liposomes; inserted in the liposomal membrane, found oligomerized, in open and closed channel conformations; Genbank AFM37279.1 is printed for OprF in general; The sense primer starts at the ATG of the gene, so the signal peptide may be part of the construct; also called porin OprF; OprF membrane antigen; not shown: N-terminal …
T2 sequence (looked up): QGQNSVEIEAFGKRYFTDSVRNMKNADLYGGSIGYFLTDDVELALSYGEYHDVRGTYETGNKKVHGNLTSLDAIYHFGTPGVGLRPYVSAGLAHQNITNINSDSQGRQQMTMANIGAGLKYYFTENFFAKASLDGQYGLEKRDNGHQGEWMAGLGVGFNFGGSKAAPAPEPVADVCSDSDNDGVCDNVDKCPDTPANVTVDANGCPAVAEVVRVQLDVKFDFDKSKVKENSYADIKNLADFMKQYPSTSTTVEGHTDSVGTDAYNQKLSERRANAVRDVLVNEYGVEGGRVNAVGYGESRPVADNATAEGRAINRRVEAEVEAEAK
Nature of the test: ELISA on coated OprF proteoliposomes, anti-c-myc-peroxidase detection, one site-specific binding fit. How it is done: By way of example, the dissociation constant Kd is determined for the scFv fragments E7, F8, F10 and G9, with an ELISA method.
For this purpose, 100 μl of OprF proteoliposomes (containing an OprF concentration of 1 μg/ml) contained in fixation buffer (0.1 M sodium carbonate, 0.1 M sodium bicarbonate) are fixed at the bottom of the wells of a 96-well plate (Thermo Scientific®) overnight at 4° C. and under stirring. The wells are then blocked for 1 h at 21° C. with 100 μl of TBS Tween (TBST) buffer containing 5% milk. After washing the wells with 100 μl of TBST buffer, 100 μl of scFv fragment (E7, F8, F10 or G9), at 1:50; 1:200; 1:400; 1:800; 1:1600 and 1:3200 dilutions in TBST buffer, are added to the corresponding wells and incubated for 1 h at 37° C. under stirring. After washing the wells, 100 μl of anti-c-myc-Peroxidase antibody (Roche) (1:10000 dilution in TBST buffer containing 5% milk) is added to the wells and incubated for 1 h at 37° C. under stirring. After washing the wells 3 times, 50 μl of TMB is added to the wells and the plate is incubated at ambient temperature and protected from light for approximately 15 min. 50 μl of 1 M HCl is then added and the absorbance of each well is measured at 450 nm. These absorbance data are then analyzed using the GraphPad Prism software (non-linear regression analysis, “one site-specific binding” equation) in order to calculate the dissociation constant Kd of each scFv fragment tested. By way of comparison, a measurement is also made on the buffer only.
For orientation: An ELISA detects its analyte on a solid surface through an enzyme-linked reagent.

B1: scFv fragment E7 (scFv)
scFv: QVQLEQSGAEVKQPGASVKVSCKASGYSFSSYGMNWVRQAPGQRPEWMGWINADTGKSTYAPGFKERFTFSLDTSVSTAYLTISSLKAEDTAVYYCVRSCRGGVCQLYHWGQGVLITVSSGGGGSGGGGSGGGGSDIELTQSPTSIAVSQGERVTISCTASSSVTTGYFHWYQQKPGFPPRLLVYGTSSLPSGVPARFSGSGSGTSYTLTISNMEAEDAAHYYCQQGHTIPLTFGGGTKVEIKHHHHHHEQKLISEEDL
notes: Macaque scFv, format VH-(G4S)3-VL-6xHis-c-myc
A word on the Kd: it is a measure of binding affinity in units of concentration. Low readings indicate tighter binding, high ones weaker binding. For B1, in test [1], the “cytotoxicity of P. aeruginosa towards macrophages (LDH release, A490-A680 nm)” value was ~0.67 fraction of cytotoxicity reduced. For the same molecule, the dissociation constant (Kd) in test [2] worked out at 213 nM.

B2: scFv fragment F8 (scFv)
scFv: QVQLEQSGAEVKQPGASVKVSCKASGYSFSSYGMNWVRQAPGQRPEWLGWINADTGKSTYAPGFKERFTFSLDTSVSTAYLTISSLKAEDTAVYYCVRSCRGGVCQLYHWGQGVLITVSSGGGGSGGGGSGGGGSEIELTQSPTSIAVSRGERVTVSCMASSSVRTGYLHWYQQKPGFPPRLLVYGTSSLPSGVPARFSGSGSGTSYTLTISSVEPEDVAHYYCQQGHTIPLTFGGGTKVEIKHHHHHHEQKLISEEDL
notes: as for B1
For B2, the “cytotoxicity of P. aeruginosa towards macrophages (LDH release, A490-A680 nm)” value in test [1] was ~0.67 fraction of cytotoxicity reduced. This molecule also gave a Kd in test [2] of 211 nM.

B3: scFv fragment F10 (scFv)
scFv: QVQLEQSGAEVKQPGASVKVSCKASGYSFNTYGMNWVRQAPGQRPEWMGWINADTGKSTYAPGFKERFTFSLDTSVSTAYLTISSLKAEDTAVYFCVRSCRGGVCQLYHWGQGVLVTVSSGGGGSGGGGSGGGGSDIELTQSPTSMAVSQGERVTISCTASSSVSTNYLHWYQQKPGFPPRLLVYRTSSLAPGVPARFSGSGSGTSYTLTISNMEAEDAAHYYCQQGNTIPLTFGGGTKVEIKHHHHHHEQKLISEEDL
notes: as for B1
In test [2], B3 had a dissociation constant Kd of 1490 nM.

B4: scFv fragment G9 (scFv)
scFv: QVQLEQSGAEVKHPGASVKVSCKASGYSFSTYGMNWVRQAPGQRPEWMGWINADTGKSTYAPGFKERFTFSLDTSVSTAYLTISSLKAEDTAVYYCVRSCRGGVCQLYHWGQGVLITVSSGGGGSGGGGSGGGGSELQMTQSPTSMAVSQGERVTISCTASSSVNTNYLHWYQQKPGFPPRLLVYGTSSLVAGVPARFSGSGSGTSYTLTISNMEAEDAANYYCQQGNTIPLTFGGGTKVEIKHHHHHHEQKLISEEDL
notes: as for B1
In the case of B4, the “cytotoxicity of P. aeruginosa towards macrophages (LDH release, A490-A680 nm)” value in test [1] is ~0.67 fraction of cytotoxicity reduced. Besides, in test [2], binding was put at a Kd of 295 nM.
